The values below come from publication PMC13397619.

First the molecules themselves.
B1: NLV3 TCR beta chain (CDR3β only) (parent)
chain: ASSPTGGSPSPLH

In the test the parent is B1. The experiment in a line: T-Switch: Jurkat TCRβ−/− cells expressing a CDR3 saturation-mutagenesis library, stained with two peptide-HLA-A*02:01 tetramers (original and novel peptide) plus anti-CD3, FACS-sorted into four gates, gDNA sequenced. To be noted: tetramers 1 µg/mL, 30 min on ice, SP, DP and SW gates expanded about 10 days between rounds ('two to three rounds of selection' in the Methods), unresolved parent, parent is a CDR3 fragment, scale: fold enrichment, numbering: sequential-on-construct, sequence starts at 1.

Setting [1] is: with both tetramers (double-negative gate, binds neither): HLA-A*02:01 with … and with …, gate DN: OPPOSITE: higher = more of the variant in the gate that binds neither peptide = LESS binding (or no expression; inferred). Fold enrichment of the CDR3 variant in one FACS gate of a two-tetram.
The mark [2] stands for this setting: with both tetramers (double-positive gate): HLA-A*02:01 with … and with …, gate DP: higher = more of the variant in the gate that binds both peptides. Fold enrichment of the CDR3 variant in one FACS gate of a two-tetramer stain. SP/DP/SW gates were expanded and re-sorted bef.

On to […] (CDR3 as printed); S8F derived by comparing it with the table's wild-type CDR3 ASSPTGGSPSPLH, for which the enrichment is, setting by setting: under setting [1], 0.97; under setting [2], 0.

As to […] (CDR3 as printed); A1E derived by comparing it with the table's wild-type CDR3 ASSPTGGSPSPLH, the enrichment amounted to 1.07 under setting [1] and 0 under setting [2].

Consider […] (CDR3 as printed); H13Q derived by comparing it with the table's wild-type CDR3 ASSPTGGSPSPLH, for which the enrichment amounted to 0.592 under setting [1] and 0 under setting [2].

Take […] (CDR3 as printed); P4H derived by comparing it with the table's wild-type CDR3 ASSPTGGSPSPLH: the enrichment was 0.553 under setting [1] and 0 under setting [2].

On to […] (CDR3 as printed); G6H derived by comparing it with the table's wild-type CDR3 ASSPTGGSPSPLH, for which the enrichment is, setting by setting: under setting [1], 1.05; under setting [2], 0.

With […] (CDR3 as printed); S8K derived by comparing it with the table's wild-type CDR3 ASSPTGGSPSPLH, the enrichment came to 0.743 under setting [1] and 0 under setting [2].

For […] (CDR3 as printed); H13N derived by comparing it with the table's wild-type CDR3 ASSPTGGSPSPLH, the enrichment is 0.56 under setting [1] and 0 under setting [2].

As to […] (CDR3 as printed); A1G derived by comparing it with the table's wild-type CDR3 ASSPTGGSPSPLH, the enrichment under setting [1] was 0.451 and the enrichment under setting [2] came out at 0.

In the case of […] (CDR3 as printed); P11T derived by comparing it with the table's wild-type CDR3 ASSPTGGSPSPLH, the enrichment is, setting by setting: under setting [1], 1.19; under setting [2], 0.

For the variant […] (CDR3 as printed); S2N derived by comparing it with the table's wild-type CDR3 ASSPTGGSPSPLH, the enrichment by setting is: under setting [1], 0.879; under setting [2], 0.

In the case of […] (CDR3 as printed); G7D derived by comparing it with the table's wild-type CDR3 ASSPTGGSPSPLH, the enrichment is, setting by setting: under setting [1], 1.18; under setting [2], 0.

Turning to […] (CDR3 as printed); L12A derived by comparing it with the table's wild-type CDR3 ASSPTGGSPSPLH, the enrichment by setting is: under setting [1], 1.68; under setting [2], 0.

In the case of […] (CDR3 as printed); H13A derived by comparing it with the table's wild-type CDR3 ASSPTGGSPSPLH, the enrichment is, setting by setting: under setting [1], 0.498; under setting [2], 0.

Take […] (CDR3 as printed); L12E derived by comparing it with the table's wild-type CDR3 ASSPTGGSPSPLH: the enrichment is, setting by setting: under setting [1], 1.1; under setting [2], 0.

Turning to […] (CDR3 as printed); S10R derived by comparing it with the table's wild-type CDR3 ASSPTGGSPSPLH, the enrichment is, setting by setting: under setting [1], 1.17; under setting [2], 0.

On to […] (CDR3 as printed); P9Q derived by comparing it with the table's wild-type CDR3 ASSPTGGSPSPLH, for which the enrichment under setting [1] worked out at 0.777 and the enrichment under setting [2] is 0.

On to […] (CDR3 as printed); S3K derived by comparing it with the table's wild-type CDR3 ASSPTGGSPSPLH, for which the enrichment is 1.11 under setting [1] and 0 under setting [2].

For the variant […] (CDR3 as printed); A1F derived by comparing it with the table's wild-type CDR3 ASSPTGGSPSPLH, the enrichment amounted to 0.897 under setting [1] and 0 under setting [2].

Turning to […] (CDR3 as printed); A1K derived by comparing it with the table's wild-type CDR3 ASSPTGGSPSPLH, the enrichment reads like this: under setting [1], 0.994; under setting [2], 0.

Turning to […] (CDR3 as printed); S8P derived by comparing it with the table's wild-type CDR3 ASSPTGGSPSPLH, the enrichment turned out to be 1.03 under setting [1] and 0 under setting [2].

For the variant […] (CDR3 as printed); G6L derived by comparing it with the table's wild-type CDR3 ASSPTGGSPSPLH, the enrichment reads like this: under setting [1], 0.967; under setting [2], 0.

In the case of […] (CDR3 as printed); G7K derived by comparing it with the table's wild-type CDR3 ASSPTGGSPSPLH, the enrichment reads like this: under setting [1], 1.36; under setting [2], 0.

Turning to […] (CDR3 as printed); P4Y derived by comparing it with the table's wild-type CDR3 ASSPTGGSPSPLH, the enrichment stood at 0.624 under setting [1] and 0 under setting [2].

With […] (CDR3 as printed); P11V derived by comparing it with the table's wild-type CDR3 ASSPTGGSPSPLH, the enrichment was 1.05 under setting [1] and 0 under setting [2].

As for […] (CDR3 as printed); S3F derived by comparing it with the table's wild-type CDR3 ASSPTGGSPSPLH, the enrichment stood at 0.989 under setting [1] and 0 under setting [2].

In the case of […] (CDR3 as printed); G6R derived by comparing it with the table's wild-type CDR3 ASSPTGGSPSPLH, the enrichment is 0.796 under setting [1] and 0 under setting [2].

For […] (CDR3 as printed); S10E derived by comparing it with the table's wild-type CDR3 ASSPTGGSPSPLH, the enrichment worked out at 1.41 under setting [1] and 0 under setting [2].

With […] (CDR3 as printed); G6N derived by comparing it with the table's wild-type CDR3 ASSPTGGSPSPLH, the enrichment under setting [1] came out at 1.47 and the enrichment under setting [2] worked out at 0.

As to […] (CDR3 as printed); P4A derived by comparing it with the table's wild-type CDR3 ASSPTGGSPSPLH, the enrichment amounted to 0.738 under setting [1] and 0 under setting [2].

For the variant […] (CDR3 as printed); G7S derived by comparing it with the table's wild-type CDR3 ASSPTGGSPSPLH, the enrichment is 1.32 under setting [1] and 0 under setting [2].

For the variant […] (CDR3 as printed); P4W derived by comparing it with the table's wild-type CDR3 ASSPTGGSPSPLH, the enrichment reads like this: under setting [1], 1.23; under setting [2], 0.

Regarding […] (CDR3 as printed); P11N derived by comparing it with the table's wild-type CDR3 ASSPTGGSPSPLH, the enrichment runs as follows: under setting [1], 1.51; under setting [2], 0.

For the variant […] (CDR3 as printed); S10L derived by comparing it with the table's wild-type CDR3 ASSPTGGSPSPLH, the enrichment reads like this: under setting [1], 0.468; under setting [2], 0.

Regarding […] (CDR3 as printed); P9Y derived by comparing it with the table's wild-type CDR3 ASSPTGGSPSPLH, the enrichment was 0.562 under setting [1] and 0 under setting [2].

Take […] (CDR3 as printed); S10Q derived by comparing it with the table's wild-type CDR3 ASSPTGGSPSPLH: the enrichment under setting [1] is 0.571 and the enrichment under setting [2] is 0.

With […] (CDR3 as printed); P11C derived by comparing it with the table's wild-type CDR3 ASSPTGGSPSPLH, the enrichment came out at 0.758 under setting [1] and 0 under setting [2].

In the case of […] (CDR3 as printed); L12P derived by comparing it with the table's wild-type CDR3 ASSPTGGSPSPLH, the enrichment runs as follows: under setting [1], 1.2; under setting [2], 0.

As for […] (CDR3 as printed); P4F derived by comparing it with the table's wild-type CDR3 ASSPTGGSPSPLH, the enrichment is, setting by setting: under setting [1], 1.02; under setting [2], 0.

In the case of […] (CDR3 as printed); S2R derived by comparing it with the table's wild-type CDR3 ASSPTGGSPSPLH, the enrichment is, setting by setting: under setting [1], 0.703; under setting [2], 0.

[…] (CDR3 as printed); T5G derived by comparing it with the table's wild-type CDR3 ASSPTGGSPSPLH: the enrichment under setting [1] was determined as 0.828 and the enrichment under setting [2] was found to be 0.

Take […] (CDR3 as printed); A1Q derived by comparing it with the table's wild-type CDR3 ASSPTGGSPSPLH: the enrichment is, setting by setting: under setting [1], 0.998; under setting [2], 0.

With […] (CDR3 as printed); H13C derived by comparing it with the table's wild-type CDR3 ASSPTGGSPSPLH, the enrichment runs as follows: under setting [1], 0.646; under setting [2], 0.

Turning to […] (CDR3 as printed); P4I derived by comparing it with the table's wild-type CDR3 ASSPTGGSPSPLH, the enrichment is, setting by setting: under setting [1], 0.965; under setting [2], 0.

Consider […] (CDR3 as printed); G6C derived by comparing it with the table's wild-type CDR3 ASSPTGGSPSPLH, for which the enrichment under setting [1] was determined as 0.841 and the enrichment under setting [2] turned out to be 0.

As to […] (CDR3 as printed); T5N derived by comparing it with the table's wild-type CDR3 ASSPTGGSPSPLH, the enrichment worked out at 0.924 under setting [1] and 0 under setting [2].

[…] (CDR3 as printed); S8H derived by comparing it with the table's wild-type CDR3 ASSPTGGSPSPLH: the enrichment by setting is: under setting [1], 0.901; under setting [2], 0.

On to […] (CDR3 as printed); L12C derived by comparing it with the table's wild-type CDR3 ASSPTGGSPSPLH, for which the enrichment was found to be 0.764 under setting [1] and 0 under setting [2].

[…] (CDR3 as printed); T5K derived by comparing it with the table's wild-type CDR3 ASSPTGGSPSPLH: the enrichment runs as follows: under setting [1], 0.965; under setting [2], 0.

As to […] (CDR3 as printed); S3L derived by comparing it with the table's wild-type CDR3 ASSPTGGSPSPLH, the enrichment stood at 0.942 under setting [1] and 0 under setting [2].

In the case of […] (CDR3 as printed); P11I derived by comparing it with the table's wild-type CDR3 ASSPTGGSPSPLH, the enrichment under setting [1] was determined as 1.19 and the enrichment under setting [2] is 0.

With […] (CDR3 as printed); P11H derived by comparing it with the table's wild-type CDR3 ASSPTGGSPSPLH, the enrichment reads like this: under setting [1], 1.37; under setting [2], 0.

[…] (CDR3 as printed); H13T derived by comparing it with the table's wild-type CDR3 ASSPTGGSPSPLH: the enrichment worked out at 0.524 under setting [1] and 0 under setting [2].

Consider […] (CDR3 as printed); S2M derived by comparing it with the table's wild-type CDR3 ASSPTGGSPSPLH, for which the enrichment by setting is: under setting [1], 0.757; under setting [2], 0.

As for […] (CDR3 as printed); P4M derived by comparing it with the table's wild-type CDR3 ASSPTGGSPSPLH, the enrichment turned out to be 0.718 under setting [1] and 0 under setting [2].

As to […] (CDR3 as printed); P11E derived by comparing it with the table's wild-type CDR3 ASSPTGGSPSPLH, the enrichment is, setting by setting: under setting [1], 0.639; under setting [2], 0.

For the variant […] (CDR3 as printed); G6E derived by comparing it with the table's wild-type CDR3 ASSPTGGSPSPLH, the enrichment by setting is: under setting [1], 1.12; under setting [2], 0.

Regarding […] (CDR3 as printed); L12N derived by comparing it with the table's wild-type CDR3 ASSPTGGSPSPLH, the enrichment under setting [1] is 0.99 and the enrichment under setting [2] is 0.

Consider […] (CDR3 as printed); T5H derived by comparing it with the table's wild-type CDR3 ASSPTGGSPSPLH, for which the enrichment runs as follows: under setting [1], 0.879; under setting [2], 0.
